Molecular target: T1, IL-17AA homodimer (human, UniProt Q16552 24-155)
T1 construct: also called IL-17A homodimer
T1 sequence: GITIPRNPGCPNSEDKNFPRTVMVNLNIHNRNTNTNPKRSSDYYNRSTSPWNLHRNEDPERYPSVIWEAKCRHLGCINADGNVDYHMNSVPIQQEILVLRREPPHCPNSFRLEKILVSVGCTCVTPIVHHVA
Experiment: ELISA, plate coated with IL-17AA; reference of the relative-potency calculation

binding result: binds
B1: anti-IL-17A/F antibody MCAF5352A, Reference Material (composition comprising 2% of the glycosylation variant) (antibody, human IgG1, kappa, V domains shown)
VH: EVQLVESGGGLVQPGRSLRLSCAASGFTFDDYAMHWVRQAPGKGLEWVSGINWSSGGIGYADSVKGRFTISRDNAKNSLYLQMNSLRAEDTALYYCARDIGGFGEFYWNFGLWGRGTLVTVSS
VL: not shown
notes: Produced in CHO cells; Predominantly the main species, which is not glycosylated in the variable region, with about 2% Peak 1; also called antibody standard; sample with 2% glycosylation variants
